Assay results: publication PMC11410943

Substrate: Cn1c(=O)ccc2ccc(F)c(CCNC[C@H]3CN(c4cnc5c(n4)NC(=O)CO5)C(=O)O3)c21
Test: OAT3 transport in HEK293 cells
Type: in vitro ADME, human
Details: other: HEK293; 37.0 °C

B1: OAT3 (Homo sapiens) (protein)
chain: MTFSEILDRVGSMGHFQFLHVAILGLPILNMANHNLLQIFTAATPVHHCRPPHNASTGPWVLPMGPNGKPERCLRFVHPPNASLPNDTQRAMEPCLDGWVYNSTKDSIVTEWDLVCNSNKLKEMAQSIFMAGILIGGLVLGDLSDRFGRRPILTCSYLLLAASGSGAAFSPTFPIYMVFRFLCGFGISGITLSTVILNVEWVPTRMRAIMSTALGYCYTFGQFILPGLAYAIPQWRWLQLTVSIPFFVFFLSSWWTPESIRWLVLSGKSSKALKILRRVAVFNGKKEEGERLSLEELKLNLQKEISLAKAKYTASDLFRIPMLRRMTFCLSLAWFATGFAYYSLAMGVEEFGVNLYILQIIFGGVDVPAKFITILSLSYLGRHTTQAAALLLAGGAILALTFVPLDLQTVRTVLAVFGKGCLSSSFSCLFLYTSELYPTVIRQTGMGVSNLWTRVGSMVSPLVKITGEVQPFIPNIIYGITALLGGSAALFLPETLNQPLPETIEDLENWSLRAKKPKQEPEVEKASQRIPLQPHGPGLGSS
B1 showed a Km of 121 µM and a Vmax of 76.1 pmol/mg/min.
